Laboratory results from US20230390371A1, “ANTI-TUMOR IMMUNITY INDUCES THE PRESENTATION OF ABERRANT PEPTIDES” (STICHTING HET NEDERLANDS KANKER INSTITUUT-ANTONI VAN …, priority 2020, published 2023).

Tests used:
[1] = test system: MD55A3 cells expressing the out-of-frame tGFP+1 reporter gene; experiment: 2D-LC MS/MS full proteome, out-of-frame tGFP+1 reporter; format: cell-based, human; conditions: IFNγ-treated vs control MD55A3 cells, +1 out-of-frame tGFP
Experimental: For deeper proteome coverage in search of IFNγ-induced frameshifts, IFNγ- or mock treated melanoma cells were lysed and digested as described above, after which dried digests were subjected to basic reversed-phase (HpH-RP) high-performance liquid chromatography for offline peptide fractionation. 250 μg peptides were reconstituted in 95% 10 mM ammonium hydroxide (NH4OH, solvent A)/5% (90% acetonitrile (ACN)/10 mM NH4OH, solvent B) and loaded onto a Phenomenex Kinetex EVO C18 analytical column (150 mm×2.1 mm, particle size 5 μm, 100 Å pores) coupled to an Agilent 1260 HPLC system equipped with a fraction collector. […] All fractions were analyzed by nanoLC-MS/MS on an Orbitrap Fusion Tribrid mass spectrometer equipped with an Easy-nLC1000 system (Thermo Scientific) as described previously^72. […]
Further, the MS data was analyzed by MaxQuant (version 1.6.0.16)74. […] The in-frame protein expression data was further normalized and analyzed using DEP^76, For the frame-shift proteome analysis, the MS data was analyzed by MaxQuant (version 1.6.0.16)^74 with LFQ normalization, and then was scanned against the trans-frame polypeptide database together with the SWISSPROT proteins with Evidence level of 1. […] Only the peptides reproducibly detected across replicates were retained for further analysis, and the list included reverse peptide hits (n=41) (FIG. 4c). […]

[2] = test system: A375 cells expressing H2-Kb; experiment: H2-Kb-bound SIINFEKL presentation from V5-ATF4(1-63)-tGFP-SIINFEKL reporters; format: cell-based, human; conditions: IFNγ treatment
Description: FIG. 4: Aberrant frameshifted peptides are detected in full proteomes, are presented on HLA class I molecules, and induce peptide-specific T cell response. • (a) Gene set enrichment analysis (GSEA) based depiction of the proteomics data showing the induction of the IFN response and HLA genes following IFN treatment of MD55A3 cells. (b) A volcano plot showing differentially identified proteins as detected by 2D LC-MS/MS on lysates of MD55A3 cells expressing the V5-ATF4(1-63)-tGFP +1 out-of-frame construct. The red arrowhead indicates a peptide identified in the full proteome that corresponds to tGFP that could only have arisen from a frameshifting event. (c) Same analysis as panel b, but for the tryptophan-associated aberrant peptides identified to be reproducibly present in either IFNγ-treated or control conditions. […] (d) Bar graph depicting the median fluorescence intensity (MFI) of H2-Kb-bound SIINFEKL peptides in A375 cells expressing H2-Kb in combination with in-frame (Frame) or +1 out-of-frame (+1) V5-ATF4(1-63)-tGFP-SIINFEKL reporters. […] The panel presents 12 frameshifted peptides detected in the immuno-peptidomics mass spectrometry data of IFNγ and tryptophan deprived (mTRP) samples, which were not detected in the untreated controls. A subset of these were also detected in the fresh tumor metastases (mets) samples of the same patient (MD55). […]

B1: IFNγ: interferon gamma (PeproTech), used at 250 U/mL (protein, UniProt P01579 24-161, looked up)
Interferon gamma: QDPYVKEAENLKKYFNAGHSDVADNGTLFLGILKNWKEESDRKIMQSQIVSFYFKLFKNFKDDQSIQKSVETIKEDMNVKFFNSNKKKRDDFEKLTNYSVTDLNVQRKAIHELIQVMAELSPAAKTGKRKRSQMLFRG
[1]
  induction of tGFP reporter peptide expression: > 30 fold
[2]; +1 out-of-frame reporter, IDO1-dependent
  presentation of +1 out-of-frame SIINFEKL peptide: strongly stimulated
[2]; in-frame reporter, IDO1-independent
  presentation of in-frame SIINFEKL peptide: mildly induced
